Test results taken from article PMC8835902.
pKd: −log10 of the molar value.

Key:
[1] = target: LDgp5 (LoopDel);thioredoxin (trx) D5A;E7A;beta-hairpin;loop;replaced;by;SGSG (bacteriophage T7;Escherichia coli?) (UniProt P00581+P0AA25); experiment: EMSA; conditions: 20 mM Hepes pH 7.5, 1 mM EDTA, 100 mM KCl, 0.1 mM bME, 5% glycerol, 0.10 mg/mL BSA, 10 nM DNA, 25 C (30 min; 15 min + 15 min for supershift)
[2] = target: WTgp5-trx complex (T7 gp5 DNA polymerase D5A, E7A with thioredoxin) (bacteriophage T7 | not stated) (UniProt P00581)

Substance	pKd [1]	other results
GGATTATTTACATTGGCAGATTCACC / TTATTAGTTATGATATTCATGTATAGTTATATGGTGAATCTGCCAATGTAAATAATCC / TATTCATGTATAGTTATGTAGAGTTCCGAGATCCGCGCTGCCAGTCGGCAGAGCC [Fork template 2gap]	6.89	
GGATTATTTACATTGGCAGATTCACC / TTATTAGTTATGATATTCATGTATAGTTATATGGTGAATCTGCCAATGTAAATAATCC / TATTCATGTATAGTTATGTAGAGACCGAGATCCGCGCTGCCAGTCGGCAGAGCC [Fork template 0gap]	6.89	
GGATTATTTACATTGGCAGATTCACC / TTATTAGTTATGATATTCATGTATAGTTATATGGTGAATCTGCCAATGTAAATAATCC / TATTCATGTATAGTTATGTAGAGTCCGAGATCCGCGCTGCCAGTCGGCAGAGCC [Fork template 1gap]	6.89	
T7 gp4 E343Q with truncated C-terminal tails (from UniProt P03692 1-566) (enzyme)		fold decrease in 2-aminopurine fluorescence of fork DNA (local base-pair unwinding), 2-AP at N+3, against the EQgp4-WTgp5 complex [2]: 2 fold
GGATTATTTACATTGGCAGATTCACC / TTATTAGTTATGATATTCATGTATAGTTATATGGTGAATCTGCCAATGTAAATAATCC [Linear template-58nt]		binding signal (fold lower affinity than WTgp5) [1]: 2
